# From US11524977 (JIANGSU UNIVERSITY, dated 2022)
# Target: Angiotensin converting enzyme (ACE EC 3.4.15.1)
# Assay: cell-based or functional assay
row,IC50 of ACE inhibitory activity,Binder
1,71.1 µg/mL,LSLP [Leu-Ser-Leu-Pro (LSLP)]
2,19.1 µg/mL,APY [Ala-Pro-Tyr (APY)]
3,14.2 µg/mL,LQPP [Leu-Gln-Pro-Pro (LQPP)]
